# Test: soluble on expression in E. coli; label from the status in PepcDB or PDB records
row,Sequence,soluble on expression in E. coli
1,MTQANLSETLFKPRFKHPETSTLVRRFNHGAQPPVQSALDGKTIPHWYRMINRLMWIWRGIDPREILDVQARIVMSDAERTDDDLYDTVIGYRGGNWIYEWATQAMVWQQKACAEDDPQLSGRHWLHAATLYNIAAYPHLKGDDLAEQAQALSNRAYEEAAQRLPGTMRQMEFTVPGGAPITGFLHMPKGDGPFPTVLMCGGLDAMQTDYYSLYERYFAPRGIAMLTIDMPSVGFSSKWKLTQDSSLLHQHVLKALPNVPWVDHTRVAAFGFRFGANVAVRLAYLESPRLKAVACLGPVVHTLLSDFKCQQQVPEMYLDVLASRLGMHDASDEALRVELNRYSLKVQGLLGRRCPTPMLSGYWKNDPFSPEEDSRLITSSSADGKLLEIPFNPVYRNFDKGLQEITDWIEKRLC,soluble
2,MTQFDKQYNSIIKDIINNGISDEEFDVRTKWDSDGTPAHTLSVISKQMRFDNSEVPILTTKKVAWKTAIKELLWIWQLKSNDVNDLNMMGVHIWDQWKQEDGTIGHAYGFQLGKKNRSLNGEKVDQVDYLLHQLKNNPSSRRHITMLWNPDELDAMALTPCVYETQWYVKHGKLHLEVRARSNDMALGNPFNVFQYNVLQRMIAQVTGYELGEYIFNIGDCHVYTRHIDNLKIQMEREQFEAPELWINPEVKDFYDFTIDDFKLINYKHGDKLLFEVAV,soluble
3,MTQFNPVDHPHRRYNPLTGQWILVSPHRAKRPWQGAQETPAKQVLPAHDPDCFLCAGNVRVTGDKNPDYTGTYVFTNDFAALMSDTPDAPESHDPLMRCQSARGTSRVICFSPDHSKTLPELSVAALTEIVKTWQEQTAELGKTYPWVQVFENKGAAMGCSNPHPHGQIWANSFLPNEAEREDRLQKEYFAEQKSPMLVDYVQRELADGSRTVVETEHWLAVVPYWAAWPFETLLLPKAHVLRITDLTDAQRSDLALALKKLTSRYDNLFQCSFPYSMGWHGAPFNGEENQHWQLHAHFYPPLLRSATVRKFMVGYEMLAETQRDLTAEQAAERLRAVSDIHFRESGV,soluble
4,MTQHTRNFSFKVLTINTHKGFTAFNKRFILPELRDAVRTVGADIVCLQEVMGAHEVHPLHIENWPDTTHYEFLADTMWSDFAYGRNAVYPEGHHGNAVLSRYPIEHYENRDVSVGGSEKRGVLYCRITPPMLNRPIHVMCVHLGLRESHRQAQLTMLAGWVNALPESEPVLVAGDFNDWRQKAGPPLNAAGLEEIFTRAHGRPARTFPVSMPLLRLDRIYVKNANASSPTALPLRNWRHLSDHAPLSAEIHL,not soluble
5,MTQIARIRDNTSERRLQAERLIGARALQEAQALRFSVFSEEFNARLKGAEQGLDIDDYDIHCSHIGVRDLNTGRLVATTRLLDHKAANTLGSFYSEEEFSLHGLAHLQGPILELGRTCVDPAYRNGGTIAVLWSELAEVLNEGGYSYLMGCASIPMQDGGIQAHAIMQRLRERYLCNEHLRAEPKNPLPTLDIPSNVICEMPPLLKAYMRLGARICGEPCWDEDFQVADVFILLKRDDLCPRYARHFKAAV,not soluble
6,MTQRLHRDRHDRGVRGPLFSSALPRYCSRRQRFDATVLEAYAPLQQRYAAQLTHLDIAVDTVPRMRLGFDPALVPDEVVADGPVPLGRVIPAGVDSSGHPTRARLVLFRMAIEQRVVSAQERRELVTTVLTALVANYLNISPTDIDPNFQW,not soluble
7,MTQRLKDKLAVITGGANGIGRAIAERFAVEGADIAIADLVPAPEAEAAIRNLGRRVLTVKCDVSQPGDVEAFGKQVISTFGRCDILVNNAGIYPLIPFDELTFEQWKKTFEINVDSGFLMAKAFVPGMKRNGWGRIINLTSTTYWLKIEAYTHYISTKAANIGFTRALASDLGKDGITVNAIAPSLVRTATTEASALSAMFDVLPNMLQAIPRLQVPLDLTGAAAFLASDDASFITGQTLAVDGGMVRH,soluble
8,MTQTVKLDILSDPICPWCYIGKTQLDKALAAIPDHPFVIEWHPFQLNPDMAPEGMDRREYLERKFGGKEGAVRAYAPVVEHAEKAGLAIDFEAMQRTPNTLDAHRLIHWAGVEGKQTEAVDALFAAYFTEGRDIGDAEVLADIADSIGMDAAVVLKLLKSDADRDDIAKRDSHSREMGVSSVPTFIVANQHAVPGAQPPELWEQVIREIMSQIETTSA,not soluble
9,MTRHALAYVAGAYEHPLRHAPDKSVAQLHAESARGALDDAGLSFADVDGYFCAGDAGLGPAYMVDYLNLTPRHVDGTEIGGGSYLAQIGHAAHAIAAGKCSVALITLAGRPRSEGQATGTEPRIPGPDRPSAPWDSAYRWTIGTIYGNFARRHMHEYGTTSEQLAWVKVAASHHAQHNPNALLRKVYTVDDVLGSPMVADPLHRLDCCVITDGGGALVIVAPEVARSLNRPRIKVV,not soluble
10,MTRLSSGAKLNHPESSVCSPVYSWSTCIRKTSPVLFSSTIFALRRMTAPSAPCAQAPQLTRRWAKIVVENRTGSHFKIQVLHEYTGEQTNDSGYIDFKPDDRITVFEKIYYNTGFFTTGVDNWKVHGTKLIQVETEGTIARNIFGKFFVDGLPYSTGHGAFAKWKKHTLRADDDGQETVIKVFQTEVQFISPSGRSVTTFNTLGENILPFSQNPQKQ,not soluble
11,MTRPPLPPFTAETAAEKVRLAENGWNNRSADVVTPAYSDDSRWRNRAEFVTGHDDIHAFLTRKWDKELDYRLIKELWAWSGNRIAVRYAYEWHDDSGNWFRSYGNENWEFDEDGRMSARHTSLNDLPITEDERLFHWPLGPRPDGHPGLTDLGLLEHHHHHH,not soluble
12,MTSACGFHLRGDYLLPDEVHEISLTSFDQYSSLTRDVQKQLRMNGIRQVAPTTVTPSLDLISESLNERTLSLYQNSRAAEKELTYNVSYSVLIPGHDLKTYTTTVNRNYLDNPLTALAKSVERDMIEEEMRAQAAEQILRQMARLKADDAPVETSDVITHDDETESKVTTKEVIKSMSTTAETTQLEHHHHHH,soluble
13,MTSIGTGYDLSNSVFSPDGRNFQVEYAVKAVENGTTSIGIKCNDGVVFAVEKLITSKLLVPQKNVKIQVVDRHIGCVYSGLIPDGRHLVNRGREEAASFKKLYKTPIPIPAFADRLGQYVQAHTLYNSVRPFGVSTIFGGVDKNGAHLYMLEPSGSYWGYKGAATGKGRQSAKAELEKLVDHHPEGLSAREAVKQAAKIIYLAHEDNKEKDFELEISWCSLSETNGLHKFVKGDLLQEAIDFAQKEINGDDDEDEDDSDNVMSSDDENAPVATNANATTDQEGDIHLE,soluble
14,MTSKSVATPALDPAFQQLTAFASVHNFILVKGQADKQDLAGYNIPKLKELIVAYHNLYRSKHGAPPLVADPVMDVAAKRWADEMAKSGWISHEKPRKYGENVAMFCQSGCWPLPQTLAQAMVHLFYIEGIGYDYSSFKPELLKENGHFTQIVWKSSRKIGVGISIGKSSQPPYIPTMFHCVKFDPPGNVLAQQYYLSNVQRPTA,not soluble
15,MTSPITLDALKVLDAIERKKSFAAAADELFRVPSAISYTVNKLEDDLGIALFDRSKRKAELTSVGIMLVEQGRLILKATDELTHMAKQSAEGWELELRICIDSILLFQPIYTLIAQFQQEYPWINIRVTEEVFGGTWDALVAGRSDLIIGATGEPYNSDFSLYKLGNVDFVFVVAKDHALIKEQQPLSNEIIKKYPSVVVADSSRNLPGRSAGLLDGQSRITVSSIEKKIEAQLLGLGVGFLPIHRIKSQLESGQLVILALETTENRNSELCMAWRNDNQGKALAWFVSNIQQMAVKLI,not soluble
16,MTSTKAYVLALAGCTNSGKSTLAKEFQRFFGAGETTIINQDEFYKTENEVEKIYHPDAEHLTDEGYYWSFDEKEAINIDQFRQRILNESKVYKNVIIDGNMITEMDEIVDLCDRIVVMTLDFKTCKRRREARTDYVPADTPGYFVNVAFPAYVRHLERARQRSRTDSRLTFIDVSESKFDDKNKSIVNFRQQILDDHIKLTDEVIDVKVVDQLVSHPSCGAISTFNGVTRDNHGGRDVSNLSYDCHDLMAYKKLRGICAEIRAEYPDVKKIAIFHRLGKVDIGESSVIISTSSPHRKTAIQATEKCIDLLKEHAPIFKYEEYSNGEVDGVWKSNIEDSKQ,not soluble
17,MTSYKPEYLIPNLLDLVAEGEGLRIEFKRLIHSAPKIARSITAFANTSGGVILIGVDDDRRIVGIQSEKEALQVIDEAMRFHIEPKPRIEVHFEEFKRRMVLLVDIPKSPERPHFHIEPLIRRDTGKHGVERRVFIRDGSHNKAASDDRIELMLSSREPLKVAFTGRERCLLDWLNEHDRITAEEFADSAGIPMKEARRILVSLVRAGALRLDTANGDNSYTLAHRLEHHHHHH,soluble
18,MTTAKPNTVEQFEHVIDICREVFQKKLHDYGASWRVMRPSSLTDQLYIKANRIRNIQMKGLSKVDEGVESEFIGVVNYGVIALIQLELGVADTPKMETEEALRLYDLKIREAMSLMLDKNHDYGEAWRQMRVSSFADLILTKVFRTKEIEDLGGDTYISEGVDANYMDMINYAIFALIQLNG,not soluble
19,MTTIGTRKRVAVVTGASSGIGEATARTLAAQGFHVVAVARRADRITALANQIGGTAIVADVTDDAAVEALARALSRVDVLVNNAGGAKGLQFVADADLEHWRWMWDTNVLGTLRVTRALLPKLIDSGDGLIVTVTSIAAIEVYDGGAGYTAAKHAQGALHRTLRGELLGKPVRLTEIAPGAVETEFSLVRFDGDQQRADAVYAGMTPLVAADVAEVIGFVATRPSHVNLDQIVIRPRDQASASRRATHPVR,not soluble
20,MTTIVPTSEENPFLAVVRFTSQLAWADAGPEAAEPEITRLCREAEESMVAEKWLELSSLMVTSAELVSSKISEKDLECTYTIICSIVKNAKSPEQVLEMVKAIASKVAQQPSDKASLRLKILFNLYNLVDHPYARFQVYMKALTLAVDGKVTEYIVSSFKKIDNFLKEWNIDIKDQRELFLAIANVLKENKSLVNESLKFLTKYLATFSNEDAQVLDEAKEEAVRAVIEFVKASSIFQCDLLDLPAVAQLEKDAKYAPVYQLLKIFLTQRLNAYTEFQNANSGFLQSYGLSNEDCVTKMRLLSLVDLASDESGKIPYTSIKDTLQVNEQDVELWIVKAITAKLIESALPNVNLGQSNGNLSEQSLRLGSIITTIESNKVTEEGSQASSSSAAAIQGLSVR,soluble
21,MTTKEKVKALWQLCFDDNEEFVEMYFRLRYKNEINIAIESGDEIVSALQMIPYPMTFCGDTVQTSYISGACTHPDFRGNGVMRELLSQAFAKMLRNGTYFSTLIPAEPWLFDYYTRMGYASVFQYSVKEITVPEFIPSKEITVTSEIGCQKEVYEYLNSKLSGRTCCIQHSFEDFQVVMADLILSDGILVTARSENQINGLAIVYRRDKQLIISELFAETKDAEHSLLHHIKQFTGCRHMTQLLPPEKEQTQYPLGMARIINAKEVLQLYASAFPEDEMQLEVSDKQLSVNNGYYYLCNGKCMYSTERLPGAHIPMNISELTGRIFQALRPYMSLMLNK,not soluble
22,MTTLLNPYFGEFGGMYVPQILMPALNQLEEAFVSAQKDPEFQAQFADLLKNYAGRPTALTKCQNITAGTRTTLYLKREDLLHGGAHKTNQVLGQALLAKRMGKSEIIAEVGAGNHGVASALASALLGLKCRIYMGAKDVERQSPNVFRMRLMGAEVIPVHSGSATLKDACNEALRDWSGSYETAHYMLGTAAGPHPYPTIVREFQRMIGEETKAQILDKEGRLPDAVIACVGGGSNAIGMFADFINDTSVGLIGVEPGGHGIETGEHGAPLKHGRVGIYFGMKAPMMQTADGQIEESYSISAGLDFPSVGPQHAYLNSIGRADYVSITDDEALEAFKTLCRHEGIIPALESSHALAHALKMMREQPEKEQLLVVNLSGRGDKDIFTVHDILKARGEI,soluble
23,MTTNIAANSGGIVFHFLGTGGAQQVPAFGCECEVCQQAQRNESKRRRACCAAITTKDRIILIDAGLPELSPYLLPYPQRHILLTHYHMDHVQGLFPLRWGYGEPIPVFGPPDEAGCDDLFKHPGILHFQKPLMAFQPFELDGIRITPVPLIHSKLTYGYLIQTPTHTLAYLTDTIGLPPETTQFLASHTLDYAIVDCSHPPQTMLPRNHNDITRALEIFTQLNPKQLYLTHISHELDRWLQTQTLLPENVHAAYDGLVLGLLEHHHHHH,not soluble

# Reference: the DeepSol protein solubility set
